Experimental data as given in patent US20050244448A1.

Target: total elastase activity of relaxin-stimulated cultured SUI vaginal fibroblasts
Assay: cell-based or functional assay

alpha-1 antitrypsin (from UniProt P01009 25-418)
inhibition of total elastase activity: 98%
